Laboratory results reported in the nanobody polyreactivity screen of Harvey et al. (2022).

Assay: yeast display, Sf9 membrane polyspecificity reagent, FACS + sequencing; frameworks hold sequencing errors
Method in brief: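 Sorting gates, low and high (top ~1%), were placed on anti-HA fluorescence to track expression and on streptavidin fluorescence to track reagent binding. A clone's polyreactivity label is taken from the gate it came out of. The reagent was 10% biotinylated, detergent-solubilized Sf9 membrane, applied for 1 hour at 4 °C to galactose-induced yeast display cells.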

Sequence | polyreactivity (PSR sort gate)
QVQLVESGGGLVQAGGSIRLTCAASGLIIGVYAKGWYRQAPGKERELVAAITDGGSTYYADSVKGRFTISRDNEQNTVSLQMNSVKPEDTAVYYCAREQGVNRNHDYWGQGTQVTVSS | low polyreactivity
QVQLVESGGGLVQAGGSLRLSCPASGFTLHSYAMGWYRQAPGKERELVAAITRSGGGTYYADSVKGRFTISRDNAKNTVYLQMNSLKPEDTAVYYCAARFGGQYQHDYWGQGTQVTVSS | high polyreactivity
QVQLVEAGGGLVQAGGSLRLSCAASGFTISSNAMGWYRQAPGKERELVAAISFNSTSTYYADSVKGRFTISRDNAKNSVYLQMNSLKPEDTAVYYCSADVPRVQSEPEYDYWGQGTQVTVSS | low polyreactivity
QVQLVESGGGLVQAGGSLRLSCAASGSIFYEYAMGWYRQAPGKERELLASINRGGGSTYYADSVKGRFTISRDNAKNTVYLQMNSLKPEDTAVYYCAAQWKYRQSYLDYYWGQGTQVTVSS | low polyreactivity
QVQLVESGGGLVQAGGSLRLSCAASGSIFNVYAMGWYRQAPGKERELVAAISDGDGSTFYADSVKGRFTISRDNAKNTVYLQMNSLKPEDTAVYYCAKDYRWDSKFDYWGQGTQVTVSS | low polyreactivity
QVQLVESGGGLVQAGGSLRLSCAASGSIFFSNAMGRYRQAPGKERELVAGIRSGGITNYADSVKGRFTISRDNAKNTVYLQMNSLKPEDTAVYYCNADLAPSTPYFYYFPVRRDYWGQGTQVTVSS | low polyreactivity
QVQLVESGGGLVQAGGSLRLSCAASGLTFYGYVMGWYRHAPGKERELVASISRSGGRTYYADSVKGRFTISRDNAKNTVYLQMNSLKAEDTAVYYCGAGDQVGQEDDYWGQGTQGTVSS | low polyreactivity
QVQLVESGGGLVQAGGSLRLSCAASGRTFDLYAMGWYRQAPGKERELVARITNIDDSTYYADSVKGRFTISRDNAKNTVYLQMNSLKPEDTAVYYCNAVVTKYAKSRFLYYYWGQGTQVTVSS | high polyreactivity
QVQLVESGVGLVQAGGSLRLSCAASGIIFRYYAMGWYRQAPGKERELVAAISSSGVSTYYADSVKGRFTISRDNAKNTVYLQMNSLKPEDTAVYYCNAVIWVRQYFSRSSSNYWGQGTQVTVSS | high polyreactivity
QVQLVESGGGLVQAGGSLRLSCAASGLTIVQYAMGWYRQAPGKERELVARISRNGGSSYYADSVKGRFPISRDNAKNTVYLQMNSLKPEDTAVYYCNALRGPVKFYYWGQGTQVTVSS | low polyreactivity
QVQLVESGGGLVQAGGSLRLSCAASGRIFAFNAMGWYRQAPGKERELVADITSSGVNTYYADSVKGRFTISRDNAKNTVYLQMNSLKPEDTAVYYCAARSYLRWWVGMEYCGQGTQVTVSS | low polyreactivity
QVQLVESGGGLVQAGGSLRLSCAASGIIFYHYAMGWYRQAPGKEREFVAAITWDGGNTYYADSVKGRFTISRDNAKNTVYLQMNSLKPEDTAVYYCNTDRGPVKVSPLYESWGQGTQVTVSS | low polyreactivity
QVQLVESGGGLVQAGGSLRLSCAASGRILPLYAMGWYRQAPGKERELVARIDSGGSTNYADSVKGRFTISRDNAKNTVYLQMNSLKPEDTAVYYCAAVVTAQAFAYFTYGYDYWGQGTQVTVSS | low polyreactivity
QVQLVESGGGLVQAGGSLRLSCAPSGSIFQFYAMGWYRQAPGKESELVAGINTSGGSTYYADSVKGRFTISRDNAKNTVYLQMNSLKPEDTEVYYCMARSRYDTGRQRGYDYWGQGTQVTVSS | low polyreactivity
QVQLVESGGGLVQAGGSLRLRCAASGSIFSGNAMGWYRQAPGKESELVAAISVNGGRTYYADSVKGRFTISRDNAKNTVSLQMNSLKPEDTAVYYCNAVTKVVYHGPYGYDYWGQGTQVTVSS | high polyreactivity
QVQLVESGGGLVQAGGSLRLSCAASGIISYRYGMGWYRQAPGKEGELVAAISWSGGSTYYADSVKGRFTISRDNAKNTVYLQMNSRKPEDTAVYYCAAYWRQAGVFKIYDYWGQGTQVTVSS | high polyreactivity
QVQLVESGGGLVQAGGSLRLSCAASGRIFYFYAIGWYRQAPGKERELVASITSAGSTYYADSVKGRFTISRDNAKNTVYLQMNSLKPADTAVYYCARVRWGSRGGYIAYYGGGYWGQGTQVTVSS | high polyreactivity
QVQLVESGGGLFQAGGSLRLSCAASGFIFPINAMGWYRQAPGKERELVAAITSGGRTNYADSVKGRFTISRDNAKNTVYLQMNSLKPEDTAVYYCNAVVFVLNVEYYPWLLNNYWGQGTQVTVSS | low polyreactivity
QVQLEESGGGLVQAGGSLRLSCAASGSIFYSYAMGWYRQAPGKERELVAAINWSGGSTYYADSVKGRFTISRDNAKNTFYFQMNSLKPQDTAVYYCAADYGWGPIYDYWGQGTQVNVSS | low polyreactivity
QLQLVESGRGLVQAGGSLRISCDASGSTFRRNAMGWYRPAPGKERELVAAITRGGGSTYYADSVKGRLTISRDNAKNTVYLQMNSLKPDDTAVYYCAAQISATRETMDYWGQGTQVTVSS | high polyreactivity
QVQLVESGGGLVQAGGSLRLSCAASGRTFPRNGMGWYRQAAGKERELVAAICWSGGRTYYADSVKGRFTISRDNAKNTVYLQMNSLKPEDTAVYYCNALYFRKGGYWGQGTQVTVSS | high polyreactivity
QVQLVESGGGLVQAGGSLRLSCAASGRIFWANAMGWYRQAPGKERELVAAISNSGVSTYYADSVKGRFTISRDNAKHTVYLQMNSLKPEDTAVYYCAADRYRKYYYWGQGTLVTVSS | high polyreactivity

Sequence | polyreactivity (PSR sort gate)
QDQLVESGGGLVQAGGSLRLSCAASGITFAYYAMGWYTQAPGKERELVAGISKSGGRTYYADSVKGRFTISRDHAKNTVYLQMNSLKPEDTAVYYCAAQDARRIVYYRYYYWGQGTQVTVSS | high polyreactivity
QVQLVESGGGLVQAGGSRRLSCAASGITFGWYAMGWYRQAPGKEMEWVATISQSGTSTYYADSVKGRFTISRDNAKNTVYLKMISLKPEDTAFYYCAADYIRGYYFRVRLEVDYWGQGTQVTVSS | low polyreactivity
QVQLVESGGGLVQAGGSLRVICAASGLIFYGYMGWSRQAPGKERELVAAISYTGGSTYYADSVKGRFTISRDNAKNTVYVQMNSLKPEDTAVYYCARDWRTKWFGYWGQGTQVTVSS | low polyreactivity
QVQLVESGGGLVQAGGSLRLSCAASGSIFNVYAMGWYRQAPGKERELVAAISDGDGSTFYADSVKGRFTISRDNAKTTVYLQMNSLKPEDTAVYYCAKDYRWDRKFDYWGQGTQVTVSS | low polyreactivity
QVQLVESGGVLVQAGGSLRLSCAASGSILHDYAMGWYRQAPGKERELVASINWSGGRTYYADSVKGRFTISRDNAKNTVYLQRNRLTPEDTAVYYCSADPSWLHVSHAPTFGLDYWGQGSQVTVSS | high polyreactivity
QVQVVESGGGLVQAGGSLRLSCAASGSIFYDYAMGWYRQAPGKERELVAAISWSGGRTYYADSVKGRFTISRDYAKNTVYLQMNSLKPEDTAVYYCAATTGVRSRRYYYWGQGTQVSVSS | low polyreactivity
QVQLVESGGGLVQAGGSLRLSCAASGRIFGLNAMGWYRQAPGKERELVAAITGSVGSTYYADSVKGRFTISRDNAKNTVYLQMNSLKPEDTAVYYCNAEYDSRRSSYYRHFNYWGQGTQVTVSS | low polyreactivity
QVQLVESGGGLVQAGGSLRLSCAASGRIFKYYAMGWYRPAPGNETELVAAIRWSDSTYYADSVKGRFTSSRDNAKNTVYLQMNSLQPEDTAVYYCAALYRHPQEYRVGDYDYWGQGTQVTVSS | low polyreactivity
QVQLVESGGGLVQAGGSLRLSCAASGSISHYAMGWYTQAPGTESELVAAISRRGGSTYYADSVKGRFTISRDNAKNTVYLQLNSLKPEDTAVYYCNAVRAGGYTEFNYWGQGTQVTVSS | high polyreactivity
QVQLVESGGGLVQAGGSLRLSCAASGSNFRVNAMGWYRQAPGKERELVAASSSGGSTHYADSVKGRFTISRDNAKNTFYLQMISLKPEDTAVYYCAVRYALGPYLWYYWGQGTQVTVSS | high polyreactivity
QVQLVESGGGLVQAGGSLRLSCAASGIIYRQNAMGWYRQATRKEREFVAAISSGGNTYYADSVKGRFTISRDNAKNTVYLQMNSLKPEDTGFYYCAADVEDRYHRAWFDYWGQGTKVTVSS | low polyreactivity
QVQLVESGGGLVQAGGSLRLSCAASGSTFSSYVMGWDRQAPGKERELVAAISSIGGSTYYADSVKGRFTISRDNAKNTVYLQMNSQKPEDTAVYYCPAEPPGSTYEGGYWGQGTQVTVSS | low polyreactivity
QVQLVESGGGLVQAGGSLRLSCAASGRIFAGYAMGWYRQAPGKERELVATITYRGGNTYYADSVKGRFTISRDNAKNTVYLQMNSLKPEDTAVYYCAKGPYRYLYRAYPGGYWGQGTQVTVSS | high polyreactivity
QVQLVESGGGLVQAGGSLRLSCAASGSTFYVYDMGWYRQAPGKERELVADISWSGGSTYADSVKGRFTISRDNAKNTVYLQMNSLKPEDTAVYYCAATSRPRPYHGGRMYYWGQGTQVTVSS | high polyreactivity
QVQLVESGGGLVQAGGSLRLSCAASGSTFRANVMGWYRQAPGKEWELVAAITSGGGSTYYADSVKGRFTISRDNAKNTVYLQMNSLKPEDTAVYYCATKRARYSYYYWGQGTQVTVSS | high polyreactivity
QVQLVESGGGLVQAGGSLRLSCAASGIIFGRYTMGWYRQAPGKERELVAAITSSGITYYADSVKGRFTISRDNAKNTVYLQMHSLTPEDTAVYYCAADSPVSVTADDGYSGQGTQVTVSS | low polyreactivity
QVQLVESGGGLVQAGGSLRLSCAASGFTFYRYAMGWYRQAPGKERELVAAITRTGGSTYYADSVKGRFTISRDIAKNTVYLQMISLKPEDTAVYYCAARVHGTGTLKYPNYYWGQGTQVTVSS | high polyreactivity
QVQLVESGGGLFQAGGSLRLSCAASGSTFYIYAMGWYRHAPGKERELVARITRGGTTYADSVKGRFTISRDNAKNTVYLQMNSLKPEDTAVYYCNAYISDDRYWSPAIEEDYWGQGTQVTVSS | high polyreactivity
QVQLVESGGGLVQAGGSLRLSCAASGSIFTFYAMGWYRQAPGKERELVAAITTIGGRTYYADSVKGRFTISRDNAKNTVYLQMNSLKPEDTAVYYCAAGYRAWEPYGHYGYWGQGTQVTVSS | high polyreactivity
QVQLVESGGGLVQAGGSLRLSCAASGRIFAYYAMGWYRQAPGKEREMVAAISRSGGSTYYADSVKGRFPISRDNAKNTVYLQMNSLKPEDTAVYYCAASLKVPYATMNYWGQGTQVTVSS | high polyreactivity
QVQLVESGGGLVQAGGSLRLICAASGIIFLYYAMGWYRQAPGKEWELVAAISSGVSTYYADSVKGRFTISRDNAKNTVYLQLNSLKPEDTAVYYCNADYYQLNSGMYYWGQGTQVTVSS | low polyreactivity
